In paper PMC9829383:

Target: Ecad ectodomain K14E mutant
Assay: single-molecule AFM dynamic force spectroscopy

koff: 0.78 s⁻¹
Substance: Ecad ectodomain K14E mutant (domain or fragment)
